Experimental findings from article PMC7793685 are described below.

The subject of data set [1] is T1, MBP-MogR (Bacillus thuringiensis 407), ORF:ee0ae10c.
T1 sequence: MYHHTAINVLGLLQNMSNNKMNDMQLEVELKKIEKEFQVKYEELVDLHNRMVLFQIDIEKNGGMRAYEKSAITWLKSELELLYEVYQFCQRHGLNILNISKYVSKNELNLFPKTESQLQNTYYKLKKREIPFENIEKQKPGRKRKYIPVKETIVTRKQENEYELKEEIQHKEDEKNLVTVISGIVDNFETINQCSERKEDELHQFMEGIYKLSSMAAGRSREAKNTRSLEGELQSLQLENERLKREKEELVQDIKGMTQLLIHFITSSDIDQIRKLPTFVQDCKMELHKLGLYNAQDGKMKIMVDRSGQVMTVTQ
Put plainly: EMSA.

Data set [2] has as its system T2, MBP-MogRQN→AA Q119A;N120A (Bacillus thuringiensis 407), ORF:ee0ae10c.
T2 sequence: T1 sequence with Q119A, N120A
The data set is described as follows: EMSA.

Numbering of substitutions follows the chain as printed.

“CAACTATCATAATATCACCTTTTCGGTAAACAAAGATAATCTAATATTAGAGTTTTTTTTTAAAGTTTGCAATAATCCTTTTAATAATTATGTAATAAAAAATGAATATATTGTTAAACTGTTATTTTTTTATATTTATTAATTCGAATTTTTAGTTGACACCCG (double strand) [fla promoter fragment]”: the binding entry in data set [1] is reported as “binds”; in data set [2] it was “no binding”. “TTACAGAAATGAAATTTACGGATAACTATATTTATATAATTTTTTCGGTTCATATTTTTATTTAACAGTAAATTATCGATCGTAATCGACAAAATTTTTCTATTTACGCATTAAAAATTTAATGTTTTAATGAACAACATAACTGGTATGACCAGACAGAAAGGATAAGG (double strand) [hbl promoter fragment]”: in data set [1], the binding entry was “binds”.
